For the test, the target named is flt3 on murine WWF7 cells. Put plainly: cell-based or functional assay.
“flt3-L mutant K84E (from UniProt P49771 24-179) (ligand)”: the Sp.Ac. MUT / Sp.Ac. WT (WWF7 cell proliferation units/ml per flt3-L ng/ml by ELISA, yeast supernatant) (ratio to wild type) worked out at 2.88. Still for that read-out and setting: to “flt3-L mutant K84T (from UniProt P49771 24-235) (ligand)” belongs 1.63; to “flt3-L mutant L26F (from UniProt P49771 24-235) (ligand)”, 0.69; to “flt3-L mutant V34L (from UniProt P49771 24-235) (ligand)”, 0.58. On to “wild type flt3-L (yeast-derived recombinant human flt3 Ligand) (from UniProt P49771 24-179)”, for which the Sp.Ac. MUT / Sp.Ac. WT (WWF7 cell proliferation units/ml per flt3-L ng/ml by ELISA, yeast supernatant) (ratio to wild type) was determined as 1 and the specific activity of WT protein (WWF7 cell proliferation, yeast supernatant), averaged over 11 independent assays was found to be 0.95 units/ng. On to “flt3-L mutant W118R (from UniProt P49771 24-179) (ligand)”, for which the Sp.Ac. MUT / Sp.Ac. WT (WWF7 cell proliferation units/ml per flt3-L ng/ml by ELISA, yeast supernatant) (ratio to wild type) is 2.19. Same read-out and setting: to “flt3-L mutant F81S (from UniProt P49771 24-179) (ligand)” belongs 0. Same read-out and setting: then “flt3-L mutant K116E (from UniProt P49771 24-179) (ligand)”, with 0.02; and “flt3-L mutant Q122R (from UniProt P49771 24-179) (ligand)”, with 2.16; and “flt3-L mutant H8Y (from UniProt P49771 24-179) (ligand)”, with 1.71. The same measure, in the same setting: then “flt3-L mutant I11Y (from UniProt P49771 24-179) (ligand)”, with 0; and “flt3-L mutant L27P (from UniProt P49771 24-179) (ligand)”, with 0.07; and “flt3-L mutant H8R (from UniProt P49771 24-179) (ligand)”, with 0.

(Values after patent publication US20020111475A1.)
